# Paper PMC12594171, “DKK3-LRP1 complex and a chemical inhibitor regulate Aβ clearance in models of Alzheimer’s disease” (Science Advances, 2025)
# B1: DKK1-Flag (ligand)
# chain: TLNSVLNSNAIKNLPPPLGGAAGHPGSAVSAAPGILYPGGNKYQTIDNYQPYPCAEDEECGTDEYCASPTRGGDAGVQICLACRKRRKRCMRHAMCCPGNYCKNGICVSSDQNHFRGEIEETITESFGNDHSTLDGYSRRTTLSSKMYHTKGQEGSVCLRSSDCASGLCCARHFWSKICKPVLKEGQVCTKHRRKGSHGLEIFQRCYCGEGLSCRIQKDHHQASNSSRLHTCQRH
# Target: mLRPIV-HA, stably expressed in SH-SY5Y
# Assay: co-IP + ELISA; SH-SY5Y cells stably expressing mLRPIV-HA incubated with Aβ42 and 1 to 200 nM DKK1 or DKK3; mLRPIV-HA precipitated with anti-HA affinity gel; Aβ42 in the eluate by ELISA
binder,measurement,value
B1,percent reduction of Aβ42 binding to mLRPIV at 20 nM DKK1,44%
